Assay results taken from the DeepSol protein solubility set.

Assay: soluble on expression in E. coli; label from the status in PepcDB or PDB records

Question: With “MGSDKIHHHHHHMIRLLFASLLAASPIHAQGFAGLGTVADGFAVPAPNPTFSFPDDHGPHPDYRIEWWYLTATLTGADGIDYGIQWTLFRSALAPTTSTDWTAPQIFMGHAGLTTPDAHFSAERLARGGIGQAGVTPVPFRAFIDDWEMTSTTAEGDAYDALSLTARGVDFAYDLALQANGPLIFHGQNGFSVKSAEGQASYYYSQPFYTVTGTLTLPTGAVEVSGNAWLDREWSSQPLSDDQSGWDWFSLQLPDGARLMAFALRDTSDQPFTSATYIAPDGTTQAYGDGAITLTPLVTTDVGGRDVPTEWRLQFPDRGIDITTQPLNPQSWMDTSFPYWEGPITFTGTHDGRGYLEMTGYE” as the sequence, how does the “soluble on expression in E. coli” value read?
Answer: not soluble

Question: For “TAQIKGLTQAQRNANDGISLAQTAEGALGEISNNLQRIRELAVQASNGTNTQTDRDALQAEVTQLQSEIQRVAEQTSFNGQKLLDGSFNGVQFQIGANAGETIGVSKIMNAQTASLGGSLTRTTSTIDATDLTKYDTAMAAGDLTINGVDVGKIDAASTAQERAAQLTEAINRVSSQTNVGASYDKTTGQVTLTSNAAIAVAGAANDATVAGWANNATTGTATTTTGINSLTVSSFTNAQQTITQIDNALKDINTARADLGAVQNRFTSTVANLQSMTENLSSALEHHHHHH”, which “soluble on expression in E. coli” value is on record?
Answer: soluble

Question: For “GSHMGQNDLVKTLRMNYLFDFYQSLLTNKQRNYLELFYLEDYSLSEIADTFNVSRQAVYDNIRRTGDLVEDYEKKLELYQKFEQRREIYDEMKQHLSNPEQIQRYIQQLEDLE”, which “soluble on expression in E. coli” value is on record?
Answer: soluble

Question: With “EVQLVESGGGLVQPGGSLRLSCAASGFTFSRYTMSWVRQAPGKGLEWVATISGGGHTYYLDSVKGRFTISRDNSKNTLYLQMNSLRAEDTAVYYCTRGFGDGGYFDVWGQGTLVTVSSAKTTPPSVYPLAPGSAAQTNSMVTLGCLVKGYFPEPVTVTWNSGSLSSGVHTFPAVLQSDLYTLSSSVTVPSSTWPSETVTCNVAHPASSTKVDKKIVPRDCHHHHHH” as the sequence, how does the “soluble on expression in E. coli” value read?
Answer: soluble

Question: For “MEKFNNIAQLKDSGLKVTGPRLKILDLFETHAEEHLSAEDVYRILLEEGVEIGVATIYRVLTQFEQAGILQRHHFETGKAVYELDKGDHHDHIVCVKCGEVTEFHNPEIEALQDKIAEENGYRIVDHALYMYGVCSDCQAKGKR”, which “soluble on expression in E. coli” value is on record?
Answer: not soluble

Question: With “MSLTPDPAIDEVTARVYQIPTDAPEADGTLSWSSTTLVLAEVAAGGRRGIGYTYGDGACAQLITGALAGSVTGHSALDVAARWQAMVRAMRNNGRPGLVSCAISAVDTALWDLKGKLLGLPVCRLLGMAHDSVPIYGSGGFTSYDDNATRAQLERWVHEWRIPRVKIKIGESWGSHERRDLDRIALARTVIGPDTELYVDANGGYRRKQAIRMAHAMAGHDVTWFEEPVSSDDLAGLREVRDQVSADVTAGEYGYDLAYFHRMLAADAVDCLQIDVTRCGGITDWLRAAAVAAAHNVDVSGHCAPNLHAHVATAVANLRHLEYFHDHHRIEQMFFDGALSPQGGVLRPDQQRPGFGLEFKQRDADRYRMREGHHHHHH” as the sequence, how does the “soluble on expression in E. coli” value read?
Answer: soluble

Question: For “MDITNIKEMNYEEVFSITITVDKPILIGQDDIVGRRQLIPIISGKVSGNNFNGKVLPGGIDSQIVRPDGKCELSARYAIRLDDGAAIYIENNGIRTVPDEYIEAVKSGEFVDPNAYYFRTIPTFETYSPKYKWMMNHIFVCCASRLPENVLLKFYKIS”, which “soluble on expression in E. coli” value is on record?
Answer: soluble

Question: Which “soluble on expression in E. coli” value does the source give for “GMKAADFTYVTVHGDNSRMSRLKAQYTMLFFYDPDCSNCRKFEKLFAEIPAFVEMVENGTLRVLAIYPDENREEWATKAVYMPQGWIVGWNKAGDIRTRQLYDIRATPTIYLLDGRKRVILKDTSMEQLIDYLATQAG” here?
Answer: not soluble

Question: For “MKTLIKNGKIIKKENQLIEAALWLENGVIHAIGESFDEADFEQVFDANGQLITPGLVDVHVHFREPGFTYKETIKTGSKAAARGGFTTVCAMPNLNPVPDTAEKLSEVYDLIQKDAVVKVLQYAPITEELRSEVLTNQKALKEAGAFAFTNDGVGVQTAGTMYLAMKEAAALNMALVAHTEDESLLFGGVMHEGEVSKKLGLPGILSATEASQIARDITLAKETGVHYHVCHVSTEESVRVIRDAKKAGIHVTAEVSPHHLILVDEDIPGDEGFWKMNPPLRGLADRQALIDGLLDGTIDCIATDHAPHGLEEKQQSFLNAPFGIVGSETAFQLIYTNFVETGIFTLEQVIDWMAVKPAEIFGLNAGTLTIGAPADIAVFDLATAAPIDAEAFESMAVNTPFTGWTVKGKTLMTFVDGALAWSEEAQ”, which “soluble on expression in E. coli” value is on record?
Answer: not soluble

Question: Which “soluble on expression in E. coli” value does the source give for “MACVDISPLSYESVKSVVKYLSLKKREQINLSIPAYHKTAKLAPFKLENVGLSDLYIEVNDRTWTLSETDIIGCTLVLYRSNGYNFQHIISITPEVAFQKLISEYLRNGTRIKKFHLYALPSLLKNVELHVSELKIDGCDYETFAKFRKFIDHNQKILKEIGFVVRQNTLWMFDEQLVKNSKEIYLQFPYYNPVPLDDMLLRLKNNHVHIIYLGFPIEKLQELAMNWIDTKKPIGTSLFLVVEHYTYVIDVFEHLTKYSKAIPSRLTDLGTSFFSHCVTMHIDESSELVLFGGPMVIEWKPFKWTLRMTIMKRGSTISK” here?
Answer: not soluble

Question: With “MATRFMTDPHAMRDMAGRFEVHAQTVEDEARRMWASAQNISGAGWSGMAEATSLDTMAQMNQAFRNIVNMLHGVRDGLVRDANNYEQQEQASQQILSS” as the sequence, how does the “soluble on expression in E. coli” value read?
Answer: not soluble

Question: Which “soluble on expression in E. coli” value does the source give for “MSLADHIDAIKKEMTSLSSQFNSNKSELERSKQDLSSMQLQMQQQMNDSVQQDLQKAHDTSKKLDNLARTFLALITDPSQQSQLLAEFESISKNGTPQMPVMTPPMMNAVAAMQPHMMMRNPMLNAMGGASPRVSGKGGAPQNGGMNGMSMMQHMQMQAFQAQMMQAQMFQQMPMMMPGMVPGMPPGMAGLPGMMPPNNMAAAMQHFNAQMAAAASVAVSTPSRNPSTSGAASRTRTPLTTSATNSPRPTTEPTIKEEEPQTMEHDVAAAVAATTATATIKQEENSTVAVA” here?
Answer: not soluble

Question: With “MGSDKIHHHHHHMDTPINAPLRKLPIGIQSFEKLRSENFLYVDKTALIYRLAQAGNPCFLSRPRRFGKSLLLSSFEAYFQGKKELFRGLAIEKLEKEWLQYPVLHLSLNAEKYDSREGLIDILERQLRQWEELYRTGGEGITHSGRFMTVIRRACEQTGRRVVVLIDEYDKPLLRSFDSQELQHDFRETLTAFYTVLKDADPWLQFVFITGVTKFAQMGIFSNLNQLNDISFDLDYNTLCGMTRAEIEATFSPELEALAVKSNATCRQVMDRLTRQYDGYRFTKDEEFTSMYNPFSVLSALQKRSYGNYWFASGTPTFLVEMLQKTDFDLREMEGIEVNEASLSDDRADINNPIPMIYQSGYLTIKDYDERFRMYTLGFPNEEVKYGFLNFVSPFYTPIAQTDTSFYIGKFIRELESGDVDAFLTRLRCFFAGIPYDLNDRTERHYQTVFYLVFQLMGQFTETEVRSARGRADAVVKTPDYIYVFEFKLNDSAEAALRQIDEKGYLLPYQADGRKVVKVGVAFEKEERNIGEWMIGG” as the sequence, how does the “soluble on expression in E. coli” value read?
Answer: not soluble

Question: Which “soluble on expression in E. coli” value does the source give for “MKLDQIDLNIIEELKKDSRLSMRELGRKIKLSPPSVTERVRQLESFGIIKQYTLEVDQKKLGLPVSCIVEATVKNADYERFKSYIQTLPNIEFCYRIAGAACYMLKINAESLEAVEDFINKTSPYAQTVTHVIFSEIDTKNGRG” here?
Answer: soluble

Question: With “MPVKVLNFPSVVLQHFLVGLTSTELFELTQCSLKSKDRVRPYEKSNKTFRMAVDFQRNWVDIRGVYRFYVKELVDGKLPKTYGKMGVREFGDKKVQVELDENEKTINIFWPTTEKEDRTFAVMKVAEHFIYTLGLGEFESVTLGQENHAGRIIDWANEKNLNIANFTIGNVDKEHDDVDKVAEKLYSASFFKKVSANFKCLINPTEAFKPNEFLPGIPKNTNMIFFHGAHWMTIDTLKDFTACSVILYDCKFTNKDINEFIKLWKNKEFERIFYISINVPQGSGFKLTEVIAGLDGFGEIENDATTMKREDGKEIEVSVLDEKKQIRIVVD” as the sequence, how does the “soluble on expression in E. coli” value read?
Answer: not soluble

Question: With “GVDWQDANSLQYVVQSAETLVPDVKPVAQAESVNRVNTGGEGLGGELRDQEYAIILETLVECNGRRKEMAEKLGISPRTLRYKLAKMRDAGIDIPS” as the sequence, how does the “soluble on expression in E. coli” value read?
Answer: not soluble

Question: With “MGSDKIHHHHHHMALKVLFTGADGYVGALLGPYLLEKGIEAVGLDTGFYRKGWLYPTSAPRPAVITKDIRQVTVADLEGFDAVAHLAELSNDPLGQQSPGLTHEINHGGSMHLAEMARKAGARRFVYMSSCSVYGVGQPEQILDETSPVNPQTAYAECKVKVEEDLTRRADSDFEPCFLRNATAYGASPRQRFDIVLNDLCGLAWTTNKITLQSDGSPWRPLVHALDMCQAVWRSLTAPADAIRGQAYNVGSNDQNYRVIEIARIVADSFPGCELEVGQPSADNRSYRVNFDKIQRVLPEFQCEWTAEKGARQMRQVFERIAMTPEEFRAEPYTRLKMLMRLRASKLLDDKLFWANPMVEAVA” as the sequence, how does the “soluble on expression in E. coli” value read?
Answer: not soluble

Question: For “MSLQTKQKGLQEVLIAAIKRATNEKTLVSFVKQIDWVDPLLFYAAGKRISFENRCYFADPAQHVIFAGIGSVFTIANSSHKRFQTARDEWEKVKENAFVQRDEYEFGTGPLLFGGFSFDPEKEKTDLWKEFKDTTFSLPAFLLTVKNEKAWLTMNTFVSATDCAETLSNEMISLEEKILGESRCALNGSKLTVISKVEVDPKGWMKAIEKVQDEMKQGNVQKVVLARELKVEMNHSIDSALVLEALRIGQPDCYVFSFDYKGACFLGATPERLIRKEDEKFTSMCLAGSIGHGHSIEESKRNSNALLHDEKNLAEHGYVVNMIRSVLNEHCEYVNIPESPGLLTTKNLIHLYTPVEAKGDASLLTMVEELHPTPALGGTPRLEAMKLIRDVELLDRGLYGAPIGWIDDEGNGEFAVALRCGLLNGEKASLFAGCGIVIDSIPQLEYEETSLKFRPMLGALEELMKEGHHHHHH”, which “soluble on expression in E. coli” value is on record?
Answer: soluble

Question: For “MMEKSTLLQIKRDIETCVGQKIQLKANKGRKKAFIREGIVENTYPSIFVVKFENDYDTVRRVSYSYTDILTKAVEITVCEDNRKIQVS”, which “soluble on expression in E. coli” value is on record?
Answer: soluble

Question: Which “soluble on expression in E. coli” value does the source give for “MAVAYSIGIDSGSTATKGILLADGVITRRFLVPTPFRPATAITEAWETLREGLETTPFLTLTGYGRQLVDFADKQVTEISCHGLGARFLAPATRAVIDIGGQDSKVIQLDDDGNLCDFLMNDKCAAGTGRFLEVISRTLGTSVEQLDSITENVTPHAITSMCTVFAESEAISLRSAGVAPEAILAGVINAMARRSANFIARLSCEAPILFTGGVSHCQKFARMLESHLRMPVNTHPDAQFAGAIGAAVIGQRVRTRR” here?
Answer: soluble

Question: For “MNTANFSAQQLQAERLLLLPSYILLKEGLVQDQAILVENGIFQDIGTHVELTKKYPDIVPVKLQDQLIMPGMIDGHHHLTQSFAKSLAYGEPSEIFKRIWVPLESNLNEQFVYLCTKLAALESLRGGFTTVCDAGTRSEIGMQLMVRALEETGLRCVLSLICNDGRAHSTLELRQNILENAQIFIKSYKQHKNVHPSLAISIPEVASDDMLYEVSKLCANSNIIFQVHVNEHLASVERSIIQQGMRPLEHLAKVGALGPQTLIAHATMLTPSELLLLQRTDTAVSYNPVASQWKGNAVASAHLMHELNIRFALGTDATRADGFRLLDAAEATQKLIFGIPTGDCSTGGGWMWLDHATTAGAEAVGLSQLTGSISIGKQADFLIIDLDTPEFCTSQDITWDMVRLCQRDQIQAVFVGGRICLWQGWPLDWDAKELMCRMKVLTKKAIEASPIQKLHPTAEQHRQLHGQTSQQQSVHI”, which “soluble on expression in E. coli” value is on record?
Answer: not soluble

Question: For “MSLTSVVFLNPGNSTETFWVSYSQFMQAAARDLGLDLRILYAERDPQNTLQQARELFQGRDKPDYLMLVNEQYVAPQILRLSQGSGIKLFIVNSPLTLDQRELIGQSRQNYSDWIGSMVGDDEEAGYRMLKELLHKLGPVPAGHGIELLAFSGLKVTPAAQLRERGLRRALAEHPQVHLRQLVYGEWNRERAYRQAQQLLKRYPKTQLVWSANDEMALGAMQAARELGRKPGTDLLFSGVNSSPEALQALIDGKLSVLEAGHFTLGGWALVALHDDALGLDARRLGGPDWQLSLFQALTPAQARQLLRLGDQVGTRVDFRGLSAQGKPDSYRYPFGLQLLLREGHHHHHH”, which “soluble on expression in E. coli” value is on record?
Answer: soluble
